Measured values taken from patent US20220119534A1 (DRAGONFLY THERAPEUTICS, published 2022).

Key:
[1] = molecular target: T1, Human CLEC12A expressed on cells (Ba/F3-hCLEC12A, PL21, HL60) (human, UniProt Q5QGZ9 1-265); assay: cell-based or functional assay
T1 sequence: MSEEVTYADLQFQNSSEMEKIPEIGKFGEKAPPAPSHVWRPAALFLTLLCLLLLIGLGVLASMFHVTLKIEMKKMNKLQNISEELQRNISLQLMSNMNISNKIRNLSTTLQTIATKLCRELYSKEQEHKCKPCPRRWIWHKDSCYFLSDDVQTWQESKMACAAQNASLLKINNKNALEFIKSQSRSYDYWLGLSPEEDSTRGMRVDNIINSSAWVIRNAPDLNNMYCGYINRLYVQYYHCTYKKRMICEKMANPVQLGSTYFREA

[2] = molecular target: T2, human CLEC12A on cells (HL60, PL21, Ba/F3-hCLEC12A) (human, UniProt Q5QGZ9 1-265); assay: flow cytometry, 40 nM, MFI after 2 h 37 C relative to 2 h on ice, HL60 cells
T2 construct: Endogenous on the AML lines HL60 and PL21; brought into mouse Ba/F3 cells by retroviral transduction; The cell line stands under assay; also called CLL-1
T2 sequence: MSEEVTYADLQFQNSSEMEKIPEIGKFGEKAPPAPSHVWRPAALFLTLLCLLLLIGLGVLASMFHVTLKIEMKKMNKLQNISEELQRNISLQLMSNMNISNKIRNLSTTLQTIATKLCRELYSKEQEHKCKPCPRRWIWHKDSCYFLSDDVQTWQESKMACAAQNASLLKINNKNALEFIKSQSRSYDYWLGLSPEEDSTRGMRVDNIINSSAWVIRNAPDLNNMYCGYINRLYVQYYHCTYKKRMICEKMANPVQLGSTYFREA

[3] = molecular target: T2, human CLEC12A on cells (HL60, PL21, …); assay: flow cytometry, PL21 cells
[4] = molecular target: T2, human CLEC12A on cells (HL60, PL21, …); assay: flow cytometry, HL60 cells
[5] = molecular target: T2, human CLEC12A on cells (HL60, PL21, …); assay: flow cytometry, Ba/F3-hCLEC12A cells
[6] = molecular target: T2, human CLEC12A on cells (HL60, PL21, …); assay: flow cytometry, 40 nM, MFI after 2 h 37 C relative to 2 h on ice, PL21 cells
[7] = molecular target: T3, human CLEC12A expressed on cells (human, UniProt Q5QGZ9 1-265); assay: flow cytometry, PL21 cells
T3 construct: Transduced isogenic cells or endogenous expression on AML cells; also called RMA-hCLEC12A; Ba/F3-hCLEC12A
T3 sequence: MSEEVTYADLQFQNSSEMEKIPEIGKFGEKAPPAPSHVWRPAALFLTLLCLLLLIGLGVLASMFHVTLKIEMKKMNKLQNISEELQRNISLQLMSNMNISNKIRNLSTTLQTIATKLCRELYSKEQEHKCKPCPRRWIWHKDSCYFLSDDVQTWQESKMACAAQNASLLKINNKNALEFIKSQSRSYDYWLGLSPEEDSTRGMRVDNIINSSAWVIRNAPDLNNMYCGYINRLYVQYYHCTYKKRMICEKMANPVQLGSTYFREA

Binder | % Max, ADCP activity of M0 macrophages against PL21 cells [1] [%] | EC50, ADCP activity of M0 macrophages against PL21 cells [1] [nM] | percent surface retention [2] [%] | EC50 [3] [nM] | FOB (fold over background) [3] [fold] | EC50 [4] [nM] | FOB (fold over background) [4] [fold] | EC50 [5] [nM] | FOB (fold over background) [5] [fold] | percent surface retention [6] [%] | EC50 [7] [nM] | Max MFI [7] [MFI]
AB0237 (F3'-1602 TriNKET) (bispecific antibody, human IgG1, kappa) QLQLQESGPGLVKPSETLSLTCTVSGFSLTNYGLHWIRQPPGKCLEWIGVIWSGGKTDYNPSLKSRVTISKDTSKNQFSLKLSSVQAADTAVYYCAKYDYDDSLDYWGQGTLVTVSSGGGGSGGGGSGGGGSGGGGSDIQMTQSPSSLSASVGDRVTITCHASQNINFWLSWYQQKPGKAPKLLIYEASNLHTGVPSRFSGSGSGTRFTLTISSLQPEDIATYYCQQSHSYPLTFGCGTKLEIKGSDKTHTCPPCPAPELLGGPSVFLFPPKPKDTLMISRTPEVTCVVVDVSHEDPEVKFNWYVDGVEVHNAKTKPREEQYNSTYRVVSVLTVLHQDWLNGKEYKCKVSNKALPAPIEKTISKAKGQPREPRVYTLPPCRDELTKNQVSLTCLVKGFYPSDIAVEWESNGQPENNYKTTPPVLVSDGSFTLYSKLTVDKSRWQQGNVFSCSVMHEALHNHYTQKSLSLSPG heavy: EVQLVESGGGLVKPGGSLRLSCAASGFTFSSYSMNWVRQAPGKGLEWVSSISSSSSYIYYADSVKGRFTISRDNAKNSLYLQMNSLRAEDTAVYYCARGAPIGAAAGWFDPWGQGTLVTVSSASTKGPSVFPLAPSSKSTSGGTAALGCLVKDYFPEPVTVSWNSGALTSGVHTFPAVLQSSGLYSLSSVVTVPSSSLGTQTYICNVNHKPSNTKVDKKVEPKSCDKTHTCPPCPAPELLGGPSVFLFPPKPKDTLMISRTPEVTCVVVDVSHEDPEVKFNWYVDGVEVHNAKTKPREEQYNSTYRVVSVLTVLHQDWLNGKEYKCKVSNKALPAPIEKTISKAKGQPREPQVCTLPPSRDELTENQVSLTCLVKGFYPSDIAVEWESNGQPENNYKTTPPVLDSDGSFFLYSWLTVDKSRWQQGNVFSCSVMHEALHNHYTQKSLSLSPG light: DIQMTQSPSSVSASVGDRVTITCRASQGISSWLAWYQQKPGKAPKLLIYAASSLQSGVPSRFSGSGSGTDFTLTISSLQPEDFATYYCQQGVSFPRTFGGGTKVEIKRTVAAPSVFIFPPSDEQLKSGTASVVCLLNNFYPREAKVQWKVDNALQSGNSQESVTEQDSKDSTYSLSSTLTLSKADYEKHKVYACEVTHQGLSSPVTKSFNRGEC | 12 | 0.08 | – | – | – | – | – | – | – | – | – | –
F3'-1602 TriNKET (other, F3' format TriNKET; also called AB0237) QLQLQESGPGLVKPSETLSLTCTVSGFSLTNYGLHWIRQPPGKCLEWIGVIWSGGKTDYNPSLKSRVTISKDTSKNQFSLKLSSVQAADTAVYYCAKYDYDDSLDYWGQGTLVTVSSGGGGSGGGGSGGGGSGGGGSDIQMTQSPSSLSASVGDRVTITCHASQNINFWLSWYQQKPGKAPKLLIYEASNLHTGVPSRFSGSGSGTRFTLTISSLQPEDIATYYCQQSHSYPLTFGCGTKLEIKGSDKTHTCPPCPAPELLGGPSVFLFPPKPKDTLMISRTPEVTCVVVDVSHEDPEVKFNWYVDGVEVHNAKTKPREEQYNSTYRVVSVLTVLHQDWLNGKEYKCKVSNKALPAPIEKTISKAKGQPREPRVYTLPPCRDELTKNQVSLTCLVKGFYPSDIAVEWESNGQPENNYKTTPPVLVSDGSFTLYSKLTVDKSRWQQGNVFSCSVMHEALHNHYTQKSLSLSPG heavy: EVQLVESGGGLVKPGGSLRLSCAASGFTFSSYSMNWVRQAPGKGLEWVSSISSSSSYIYYADSVKGRFTISRDNAKNSLYLQMNSLRAEDTAVYYCARGAPIGAAAGWFDPWGQGTLVTVSSASTKGPSVFPLAPSSKSTSGGTAALGCLVKDYFPEPVTVSWNSGALTSGVHTFPAVLQSSGLYSLSSVVTVPSSSLGTQTYICNVNHKPSNTKVDKKVEPKSCDKTHTCPPCPAPELLGGPSVFLFPPKPKDTLMISRTPEVTCVVVDVSHEDPEVKFNWYVDGVEVHNAKTKPREEQYNSTYRVVSVLTVLHQDWLNGKEYKCKVSNKALPAPIEKTISKAKGQPREPQVCTLPPSRDELTENQVSLTCLVKGFYPSDIAVEWESNGQPENNYKTTPPVLDSDGSFFLYSWLTVDKSRWQQGNVFSCSVMHEALHNHYTQKSLSLSPG light: DIQMTQSPSSVSASVGDRVTITCRASQGISSWLAWYQQKPGKAPKLLIYAASSLQSGVPSRFSGSGSGTDFTLTISSLQPEDFATYYCQQGVSFPRTFGGGTKVEIKRTVAAPSVFIFPPSDEQLKSGTASVVCLLNNFYPREAKVQWKVDNALQSGNSQESVTEQDSKDSTYSLSSTLTLSKADYEKHKVYACEVTHQGLSSPVTKSFNRGEC | – | – | 106 | 0.52 | 15 | 1.01 | 66 | 1.54 | 341 | 91 | – | –
AB0089 TriNKET (other, F3' format TriNKET) QLQLQESGPGLVKPSETLSLTCTVSGFSLTNYGLHWIRQPPGKCLEWIGVIWVGGATDYNPSLKSRVTISVDTSKNQFSLKLSSVQAADTAVYYCAKGDYGDTLDYWGQGTLVTVSSGGGGSGGGGSGGGGSGGGGSDIQMTQSPSSLSASVGDRVTITCHASQNINFWLSWYQQKPGKAPKLLIYEASNLHTGVPSRFSGSGSGTDFTLTISSLQPEDFATYYCQQSHSYPLTFGCGTKLEIKGSDKTHTCPPCPAPELLGGPSVFLFPPKPKDTLMISRTPEVTCVVVDVSHEDPEVKFNWYVDGVEVHNAKTKPREEQYNSTYRVVSVLTVLHQDWLNGKEYKCKVSNKALPAPIEKTISKAKGQPREPRVYTLPPCRDELTKNQVSLTCLVKGFYPSDIAVEWESNGQPENNYKTTPPVLVSDGSFTLYSKLTVDKSRWQQGNVFSCSVMHEALHNHYTQKSLSLSPG heavy: EVQLVESGGGLVKPGGSLRLSCAASGFTFSSYSMNWVRQAPGKGLEWVSSISSSSSYIYYADSVKGRFTISRDNAKNSLYLQMNSLRAEDTAVYYCARGAPIGAAAGWFDPWGQGTLVTVSSASTKGPSVFPLAPSSKSTSGGTAALGCLVKDYFPEPVTVSWNSGALTSGVHTFPAVLQSSGLYSLSSVVTVPSSSLGTQTYICNVNHKPSNTKVDKKVEPKSCDKTHTCPPCPAPELLGGPSVFLFPPKPKDTLMISRTPEVTCVVVDVSHEDPEVKFNWYVDGVEVHNAKTKPREEQYNSTYRVVSVLTVLHQDWLNGKEYKCKVSNKALPAPIEKTISKAKGQPREPQVCTLPPSRDELTENQVSLTCLVKGFYPSDIAVEWESNGQPENNYKTTPPVLDSDGSFFLYSWLTVDKSRWQQGNVFSCSVMHEALHNHYTQKSLSLSPG light: DIQMTQSPSSVSASVGDRVTITCRASQGISSWLAWYQQKPGKAPKLLIYAASSLQSGVPSRFSGSGSGTDFTLTISSLQPEDFATYYCQQGVSFPRTFGGGTKVEIKRTVAAPSVFIFPPSDEQLKSGTASVVCLLNNFYPREAKVQWKVDNALQSGNSQESVTEQDSKDSTYSLSSTLTLSKADYEKHKVYACEVTHQGLSSPVTKSFNRGEC | – | – | 147 | 0.34 | 16 | 1.08 | 70 | 2.28 | 434 | 124 | – | –
AB0305 mAb (Humanized 1739 anti-CLEC12A mAb) (antibody, IgG1, V domains shown, Parental hIgG1 mAb; also called parental mAb of AB0089) VH: QLQLQESGPGLVKPSETLSLTCTVSGFSLTNYGLHWIRQPPGKGLEWIGVIWVGGATDYNPSLKSRVTISVDTSKNQFSLKLSSVQAADTAVYYCAKGDYGDTLDYWGQGTLVTVSS VL: DIQMTQSPSSLSASVGDRVTITCHASQNINFWLSWYQQKPGKAPKLLIYEASNLHTGVPSRFSGSGSGTDFTLTISSLQPEDFATYYCQQSHSYPLTFGSGTKLEIK | – | – | 90 | 0.12 | 15 | 0.12 | 53 | 0.67 | 279 | 92 | – | –
AB0037 mAb (Humanized 1602 anti-CLEC12A mAb) (antibody, V domains shown, Parental mAb of AB0237; also called humanized mAb 16B8.C8; parental mAb of AB0237) VH: QLQLQESGPGLVKPSETLSLTCTVSGFSLTNYGLHWIRQPPGKGLEWIGVIWSGGKTDYNPSLKSRVTISKDTSKNQFSLKLSSVQAADTAVYYCAKYDYDDSLDYWGQGTLVTVSS VL: DIQMTQSPSSLSASVGDRVTITCHASQNINFWLSWYQQKPGKAPKLLIYEASNLHTGVPSRFSGSGSGTRFTLTISSLQPEDIATYYCQQSHSYPLTFGGGTKLEIK | – | – | 74 | 0.52 | 13 | 0.52 | 51 | 1.4 | 301 | 79 | – | –
Merus-CLL1 (antibody, V domains shown) VH: EVQLVQSGAEVKKPGASVKVSCKASGYTFTSYYMHWVRQAPGQGLEWMGIINPSGGSTSYAQKFQGRVTMTRDTSTSTVYMELSSLRSEDTAVYYCARGNYGDEFDYWGQGTLVTVSS VL: not shown | – | – | – | – | – | – | – | – | – | – | 2.02 | 201
Genentech-h6E7 (antibody, V domains shown) VH: EVQLVQSGAEVKKPGASVKVSCKASGYSFTDYYMHWVRQAPGQGLEWIGRINPYNGAAFYSQNFKDRVTLTVDTSTSTAYLELSSLRSEDTAVYYCAIERGADLEGYAMDYWGQGTLVTVSS VL: DIQMTQSPSSLSASVGDRVTITCRASQSVSTSSYNYMHWYQQKPGKPPKLLIKYASNLESGVPSRFSGSGSGTDFTLTISSLQPEDFATYYCQHSWEIPLTFGQGTKVEIK | – | – | – | – | – | – | – | – | – | – | 5 | 265
